System: Escherichia coli TOP10
Experiment: shrunken log2 fold change of peptide-encoding DNA abundance (4.5 h post-induction vs induction); higher = less antimicrobial activity (less host growth inhibition)
Details: time post-induction: 4.5 h; library: site-saturation at positions 5, 18, 19, 20
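Note: peptides expressed intracellularly from a pBAD plasmid library in pooled LB shake-flask culture, induced with 0.3% L-arabinose, DNA abundance read by NGS, three biological replicates, DESeq2 with apeglm shrinkage.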

First: RRIRPRPPRLPRPRPRPITRPRP
Second: RRIRTRPPRLPRPRPRPNGIPRP
The “shrunken log2 fold change” value of the first is higher: 0.31 for the first, 0.0301 for the second.

Compared with RRIRFRPPRLPRPRPRPSASPRP, RRIRMRPPRLPRPRPRPSWCPRP is higher in “shrunken log2 fold change” value: 0.0552 for the first, 0.387 for the second.

RRIRQRPPRLPRPRPRPFWFPRP and RRIRQRPPRLPRPRPRPGSCPRP are within 0.2 log units of each other in “shrunken log2 fold change” value: 0.0862 for the first, 0.192 for the second.

Compared with RRIRHRPPRLPRPRPRPREQPRP, RRIRCRPPRLPRPRPRPPVFPRP is lower in “shrunken log2 fold change” value: 0.628 for the first, 0.0601 for the second.

RRIRWRPPRLPRPRPRPITPPRP and RRIRDRPPRLPRPRPRPGQNPRP are within 0.2 log units of each other in “shrunken log2 fold change” value: 0.145 for the first, -0.0354 for the second.

Going from RRIRFRPPRLPRPRPRPDVVPRP to RRIRRRPPRLPRPRPRPAGLPRP, the “shrunken log2 fold change” value rises from -0.181 to 0.153.

Compared with RRIRWRPPRLPRPRPRPSRVPRP, RRIRYRPPRLPRPRPRPFHCPRP is lower in “shrunken log2 fold change” value: 0.253 for the first, -0.0983 for the second.

RRIRSRPPRLPRPRPRPNVFPRP and RRIRYRPPRLPRPRPRPCIRPRP are within 0.2 log units of each other in “shrunken log2 fold change” value: -0.075 for the first, -0.023 for the second.

First: RRIRGRPPRLPRPRPRPCRNPRP
Second: RRIRGRPPRLPRPRPRPKPPPRP
The “shrunken log2 fold change” value of the first is lower: 0.0316 for the first, 2.28 for the second.

RRIRIRPPRLPRPRPRPCKPPRP and RRIRIRPPRLPRPRPRPHWVPRP are within 0.2 log units of each other in “shrunken log2 fold change” value: -0.19 for the first, -0.0146 for the second.

First: RRIRSRPPRLPRPRPRPEYMPRP
Second: RRIRMRPPRLPRPRPRPQNTPRP
The “shrunken log2 fold change” value of the first is lower: -0.609 for the first, 0.0152 for the second.

RRIRDRPPRLPRPRPRPVFFPRP and RRIRARPPRLPRPRPRPRNIPRP are within 0.2 log units of each other in “shrunken log2 fold change” value: 0.208 for the first, 0.157 for the second.

Going from RRIRHRPPRLPRPRPRPTIRPRP to RRIRKRPPRLPRPRPRPAQCPRP, the “shrunken log2 fold change” value rises from -0.689 to -0.0613.

RRIRFRPPRLPRPRPRPERDPRP and RRIRSRPPRLPRPRPRPSVFPRP are within 0.2 log units of each other in “shrunken log2 fold change” value: -0.0622 for the first, -0.23 for the second.

RRIRDRPPRLPRPRPRPAWFPRP and RRIRARPPRLPRPRPRPQTDPRP are within 0.2 log units of each other in “shrunken log2 fold change” value: 0.118 for the first, 0.275 for the second.

Compared with RRIRFRPPRLPRPRPRPAHGPRP, RRIRPRPPRLPRPRPRPDGGPRP is lower in “shrunken log2 fold change” value: 0.418 for the first, -0.129 for the second.

Going from RRIRQRPPRLPRPRPRPGYRPRP to RRIRFRPPRLPRPRPRPIYKPRP, the “shrunken log2 fold change” value falls from -0.354 to -0.836.

First: RRIRNRPPRLPRPRPRPWEVPRP
Second: RRIRIRPPRLPRPRPRPQSEPRP
The “shrunken log2 fold change” value of the first is higher: 0.00408 for the first, -0.219 for the second.

Compared with RRIRCRPPRLPRPRPRPYAGPRP, RRIRWRPPRLPRPRPRPQSYPRP is higher in “shrunken log2 fold change” value: -0.513 for the first, -0.0988 for the second.

Going from RRIRKRPPRLPRPRPRPGGQPRP to RRIRGRPPRLPRPRPRPTTGPRP, the “shrunken log2 fold change” value rises from 0.108 to 0.418.

Compared with RRIRKRPPRLPRPRPRPCFWPRP, RRIRMRPPRLPRPRPRPYHYPRP is lower in “shrunken log2 fold change” value: 0.42 for the first, -0.638 for the second.

Compared with RRIRFRPPRLPRPRPRPFLYPRP, RRIRPRPPRLPRPRPRPTNYPRP is higher in “shrunken log2 fold change” value: -1.04 for the first, -0.542 for the second.

RRIRKRPPRLPRPRPRPYHKPRP and RRIRGRPPRLPRPRPRPCLKPRP are within 0.2 log units of each other in “shrunken log2 fold change” value: 0.0411 for the first, 0.213 for the second.

Going from RRIRSRPPRLPRPRPRPLYQPRP to RRIRERPPRLPRPRPRPKVKPRP, the “shrunken log2 fold change” value rises from -0.339 to 0.0263.

RRIRTRPPRLPRPRPRPEDFPRP and RRIRLRPPRLPRPRPRPHFHPRP are within 0.2 log units of each other in “shrunken log2 fold change” value: -0.00101 for the first, -0.0565 for the second.

Compared with RRIRTRPPRLPRPRPRPMVLPRP, RRIRDRPPRLPRPRPRPMGWPRP is higher in “shrunken log2 fold change” value: -0.0596 for the first, 0.476 for the second.

First: RRIRARPPRLPRPRPRPPWGPRP
Second: RRIRRRPPRLPRPRPRPCLDPRP
The “shrunken log2 fold change” value of the first is higher: 0.48 for the first, -0.167 for the second.

First: RRIRGRPPRLPRPRPRPDSHPRP
Second: RRIRERPPRLPRPRPRPLYLPRP
The “shrunken log2 fold change” value of the first is higher: 0.0299 for the first, -0.77 for the second.

First: RRIRQRPPRLPRPRPRPMIFPRP
Second: RRIRHRPPRLPRPRPRPDTWPRP
The “shrunken log2 fold change” value of the first is higher: -0.0627 for the first, -1.13 for the second.

RRIRYRPPRLPRPRPRPAKQPRP and RRIRERPPRLPRPRPRPVGMPRP are within 0.2 log units of each other in “shrunken log2 fold change” value: -0.168 for the first, -0.0934 for the second.

RRIRGRPPRLPRPRPRPQTLPRP and RRIRGRPPRLPRPRPRPMWCPRP are within 0.2 log units of each other in “shrunken log2 fold change” value: 0.614 for the first, 0.667 for the second.

Compared with RRIRARPPRLPRPRPRPFLCPRP, RRIRWRPPRLPRPRPRPCSEPRP is lower in “shrunken log2 fold change” value: 0.0599 for the first, -0.206 for the second.

Going from RRIRYRPPRLPRPRPRPPCLPRP to RRIRLRPPRLPRPRPRPGRNPRP, the “shrunken log2 fold change” value rises from -0.288 to -0.0488.

Compared with RRIRTRPPRLPRPRPRPTKTPRP, RRIRYRPPRLPRPRPRPACVPRP is lower in “shrunken log2 fold change” value: 0.0558 for the first, -0.351 for the second.

First: RRIRQRPPRLPRPRPRPYTHPRP
Second: RRIRVRPPRLPRPRPRPTIKPRP
The “shrunken log2 fold change” value of the first is lower: -0.723 for the first, -0.226 for the second.

Compared with RRIRLRPPRLPRPRPRPMMCPRP, RRIRNRPPRLPRPRPRPDNTPRP is lower in “shrunken log2 fold change” value: 0.00205 for the first, -0.297 for the second.

Compared with RRIRHRPPRLPRPRPRPQCCPRP, RRIRRRPPRLPRPRPRPDDFPRP is higher in “shrunken log2 fold change” value: -0.00176 for the first, 0.252 for the second.

With RRIRTRPPRLPRPRPRPPGKPRP the “shrunken log2 fold change” value was 0.129.

From the supplement of paper PMC9112550, “Optimization of the antimicrobial peptide Bac7 by deep mutational scanning” (BMC Biology, 2022)
